Experiments:
HGFIN = biological target: T1, HGFIN (Homo sapiens, UniProt Q14956); test: SELDI ProteinChip (PS1) HGFIN-SP interaction; format: binding; settings: HGFIN covalently bound to PS1 chip, SP added
T1 construct: made in house
T1 sequence (Q14956 23-560 isoform Q14956-2): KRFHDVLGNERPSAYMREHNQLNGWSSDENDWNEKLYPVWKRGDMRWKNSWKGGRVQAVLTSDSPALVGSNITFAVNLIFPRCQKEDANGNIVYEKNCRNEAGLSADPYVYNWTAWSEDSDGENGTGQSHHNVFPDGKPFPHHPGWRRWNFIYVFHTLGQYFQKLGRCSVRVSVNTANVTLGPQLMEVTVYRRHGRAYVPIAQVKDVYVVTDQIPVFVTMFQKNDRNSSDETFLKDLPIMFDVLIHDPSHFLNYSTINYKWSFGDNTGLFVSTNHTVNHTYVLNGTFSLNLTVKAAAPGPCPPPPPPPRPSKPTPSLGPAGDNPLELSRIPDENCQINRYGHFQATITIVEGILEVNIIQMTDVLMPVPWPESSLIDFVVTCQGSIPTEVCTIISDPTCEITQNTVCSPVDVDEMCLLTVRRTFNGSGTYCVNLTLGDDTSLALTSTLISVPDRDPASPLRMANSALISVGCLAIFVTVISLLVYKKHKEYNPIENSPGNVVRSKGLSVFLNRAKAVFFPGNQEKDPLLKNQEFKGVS
Method: Before studying the interaction between SP and HGFIN, each protein was profiled by the Surface Enhanced Laser Desorption/Ionization (SELDI) ProteinChip Array technology (Ciphergen Biosystems Inc., Fremont, Calif.). Normal phase (NP1) arrays were used for profiling and preactivated surface arrays (PS1) for HGFIN-SP interaction. For profiling studies, 2 μg of purified HGFIN or 2 μg of SP were spotted directly onto the NP1 arrays. Prior to adding of the proteins, chips were pre-wet with PBS. Arrays were incubated at room temperature until the protein was absorbed, which took approximately 5 to 10 minutes. […] Chips were immediately analyzed using linear, time-lag focusing laser desorption/ionization SELDI-time-of-flight mass spectrometer (Model PBS II). Accurate mass was determined by collecting approximately 150 averaged laser shots. […]
HGFIN-SP interaction was studied by pre-treating the PS1 chips with 50% acetonitrile for 3 minutes. […] CHCA was applied and the non-covalently bound SP was detected with the SELDI-Time of Flight Mass spectrometer as described for the profiling studies for HGFIN.
Protein-protein interactions were performed with the PS1 protein chip since this chip was determined to covalently bind HGFIN. SP was added to the chip and then detected with the SELDI system.

[1] = biological target: T2, Fibronectin-Fragment III-C (FN-IIIC) (Homo sapiens, UniProt P02751); test: SELDI ProteinChip (PS1) positive control, FN-IIIC and SP; format: binding; settings: FN-IIIC covalently coated
T2 construct: 20 ng fibronectin, fragment III-C (positive control); purchased Sigma (St Louis, Mo.)
Method: HGFIN-SP interaction was studied by pre-treating the PS1 chips with 50% acetonitrile for 3 minutes. After this, the chips were incubated for 45 minutes with the following: 2.5 μg HGFIN (experimental sample), anti-Id2, an unrelated IgG regarding its ability to complex with SP and was therefore treated as a negative control, rabbit anti-SP (positive control) or 20 ng fibronectin, fragment III-C (positive control). The arrays were blocked for 25 minutes with 1 M ethanolamine and washed with PBS+0.5% TRITON-X (2×) and a final PBS wash step. After this the chips were washed with PBS+TRITON-X, PBS, rinsed with 5 mM HEPES and then dried. CHCA was applied and the non-covalently bound SP was detected with the SELDI-Time of Flight Mass spectrometer as described for the profiling studies for HGFIN.
Fibronectin has been reported to bind SP. Therefore, this property of fibronectin was used as a positive control for SP interaction on the SELDI system. […] Similar results were shown with another positive control: rabbit anti-SP (covalently bound) and SP. No peak was detected in two negative controls, which consisted of bovine serum albumin or an unrelated antibody (anti-Id2) covalently bound to the surface of PS1.

[2] = system: cancer stem cells from breast cancer cell lines; test: Drug exposure of breast cancer stem cell clones; format: cell-based; settings: selected clones
Method: Breast cancer cells are cultured in the presence of each or combinations of the anti-cancer agents 5-FU, Methothrexate, and Cytarabine. […] Cells are passaged at least 5 times in high concentrations of anti-cancer drugs. […] Breast cancer cells were subjected to rounds of exposure to 5-fluorouracil (5-FU), methotrexate, and cytarabine.

T2 sequence (P02751 627-702 limits assumed): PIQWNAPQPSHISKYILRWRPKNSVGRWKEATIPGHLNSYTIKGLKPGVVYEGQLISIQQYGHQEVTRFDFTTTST

Molecule | non-covalently bound SP detected on HGFIN-coated PS1 chip (SELDI) (HGFIN) | SP detected on FN-IIIC-coated PS1 chip (SELDI) [1] | response of cancer stem cells to the drug [2]
Substance P [SP] | single peak at ˜13000 Da | single peak at ˜13000 Da | 
O=c1[nH]cc(F)c(=O)[nH]1 [5-FU, 5-fluorouracil] |  |  | resistant

Source: patent US8383806B2, “Method of reversing carboplatin resistance by inhibition of HGFIN” (University of Medicine and Dentistry of New Jersey, priority 2000, dated 2013)
